Measurements as given in patent publication US20220306751A1 (MYTHIC THERAPEUTICS, published 2022).
Where a chain is given by its changes, count along the chain named.

T1: CD123 Protein, His Tag, Acro Biosciences Cat. No. ILA-H52H6 (Homo sapiens (Human), UniProt P26951 19-305)
T1 construct: Bought protein; not shown: His tag
T1 sequence: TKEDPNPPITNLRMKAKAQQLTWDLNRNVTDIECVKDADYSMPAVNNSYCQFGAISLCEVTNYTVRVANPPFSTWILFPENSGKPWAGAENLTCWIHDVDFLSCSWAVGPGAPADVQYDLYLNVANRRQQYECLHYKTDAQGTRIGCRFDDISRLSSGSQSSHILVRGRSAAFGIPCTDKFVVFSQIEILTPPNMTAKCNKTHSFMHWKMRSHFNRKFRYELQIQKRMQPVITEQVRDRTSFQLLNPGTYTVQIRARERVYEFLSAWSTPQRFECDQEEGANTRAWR

B1: MYT1270 (antibody, V domains shown)
VH: QVQLVQSGAEVKKPGASVKVSCKASGYIFTSSIMHWVRQAPGQGLEWIGYIKPYNDGHKYNEKFKGRATLTSDRSTSTAYMELSSLRSEDTAVYYCAREGGNDYYDTMDYWGQGTLVTVSS
VL: DIQMTQSPSSLSASVGDRVTITCRASQDINSYLSWFQQKPGKAPKTLIYRVNRLVDGVPSRFSGSGSGNDYTLTISSLQPEDFATYYCLQYDAFPYTFGQGTKVEIK
notes: IgG
B2: MYT1283 (antibody, V domains shown)
VH: B1 VH with H58T, G101H
VL: B1 VL
notes: IgG
B3: MYT1271 (antibody, V domains shown)
VH: B1 VH with H58T, K59H
VL: B1 VL
notes: IgG
B4: MYT1285 (antibody, V domains shown)
VH: B1 VH with H58T, D103H
VL: B1 VL
notes: IgG
B5: MYT1278 (antibody, V domains shown)
VH: B1 VH with H58T, G66H
VL: B1 VL
notes: IgG
B6: MYT1284 (antibody, V domains shown)
VH: B1 VH with H58T, N102H
VL: B1 VL
notes: IgG
B7: MYT1273 (antibody, V domains shown)
VH: B1 VH with H58T, N61H
VL: B1 VL
notes: IgG
B8: MYT1276 (antibody, V domains shown)
VH: B1 VH with H58T, F64H
VL: B1 VL
notes: IgG
B9: MYT1282 (antibody, V domains shown)
VH: B1 VH with H58T, G100H
VL: B1 VL
notes: IgG
B10: MYT1286 (antibody, V domains shown)
VH: B1 VH with H58T, Y104H
VL: B1 VL
notes: IgG
B11: MYT1280 (antibody, V domains shown)
VH: B1 VH with H58T, R98H
VL: B1 VL
notes: IgG
B12: MYT1272 (antibody, V domains shown)
VH: B1 VH with H58T, Y60H
VL: B1 VL
notes: IgG
B13: MYT1279 (antibody, V domains shown)
VH: B1 VH with H58T, A97H
VL: B1 VL
notes: IgG
B14: MYT1287 (antibody, V domains shown)
VH: B1 VH with H58T, Y105H
VL: B1 VL
notes: IgG
B15: MYT1275 (antibody, V domains shown)
VH: B1 VH with H58T, K63H
VL: B1 VL
notes: IgG
B16: MYT1274 (antibody, V domains shown)
VH: B1 VH with H58T, E62H
VL: B1 VL
notes: IgG
B17: MYT1288 (antibody, V domains shown)
VH: B1 VH with H58T, D106H
VL: B1 VL
notes: IgG
B18: MYT1277 (antibody, V domains shown)
VH: B1 VH with H58T, K65H
VL: B1 VL
notes: IgG

biological target: T1, CD123 Protein, His Tag, Acro …; assay: BLI, IgG on anti-human Fc sensor, 50 nM CD123, pH 7.4 and pH 5.4
Excerpt: We selected IMGN632 (Heavy chain SEQ ID NO: 1, Light chain SEQ ID NO: 2) as a CD123-binding monoclonal antibody for pH engineering via histidine scanning. Briefly, CDRs in the heavy chain were identified using the methods described by Kabat et al (Kabat et al. (1992) Sequences of Proteins of Immunological Interest, DIANE publishing) and IMGT (Lefranc M P (1999) “The IMGT unique numbering for Immunoglobulins, T cell receptors and Ig-like domains” The Immunologist 7, 132-136), and for each CDR, residues falling under either or both Kabat and IMGT CDR definitions were called as CDR residues. To generate pH-dependent sequence variants, individual amino acid residues within the heavy chain CDRs were systematically substituted with a histidine, one at a time (MYT1252-MYT1292). In cases where the starting CDR residue was a histidine, it was mutated to an alanine. Antibody variants with only one histidine or alanine mutation in a heavy chain CDR were generated by co-transfection of Expi293 cells with a) one heavy chain sequence variant, and b) the corresponding starting ABPC light chain using methods known to the art. After allowing for four days of protein expression, cell culture supernatants were collected, quantified by SDS-PAGE analysis (FIG. 1), and the pH dependence of the variant was evaluated using biolayer interferometry (BLI) on an Octet RED 384 instrument. For constructs MYT1252, MYT1254-MYT1287, and MYT1289-1292, 104, of cell culture supernatant was diluted into 1904, of 1× PBST pH 7.4. For MYT1253 and MYT1288 254, and 504, of cell culture supernatant was diluted into 1754, and 1504, respectively. […] The resulting diluted supernatants were then captured on an anti-human Fc sensor (Forte Bio). A baseline was established using 1× PBST (50 mM Potassium Phosphate Buffer+150 mM NaCl+0.05% Tween 20) pH 7.4, and the sensor was associated with 50 nM of CD123 (CD123 Protein, His Tag, Acro Biosciences Cat. No. ILA-H52H6, Lot No. 1741d-89CF1-KB) in 1×PBST pH 7.4 for 120 sec to generate an association curve. In the dissociation phase, the antibody-antigen complex on the sensor was exposed to 1× PBST pH 7.4 for 300-600 sec. Baseline, association, and dissociation were repeated using 1×PBST pH 5.4 throughout in a separate condition.

| binding result | Binder |
| --- | --- |
| binds | B1 |
| binds | B2 |
| binds | B3 |
| binds | B4 |
| binds | B5 |
| binds | B6 |
| binds | B7 |
| binds | B8 |
| binds | B9 |
| binds | B10 |
| binds | B11 |
| binds | B12 |
| binds | B13 |
| binds | B14 |
| binds | B15 |
| binds | B16 |
| binds | B17 |
| binds | B18 |
